From publication doi:10.1101/2023.03.17.533217 (2023)

B1: inhibiting monobody Mb2 (designed binder)
chain: GSVSSVPTKLEVVAATPTSLLISWDAPAVTVVHYVITYGETGGNSPVQEFTVPGSKSTATISGLKPGVDYTITVYAIDFYWGSYSPISINYRT
B2: activating monobody Mb1 (designed binder)
chain: GSVSSVPTKLEVVAATPTSLLISWDAQTYQMYDYVSYYRITYGETGGNSPVQEFTVPGYYSTATISGLKPGVDYTITVYAEGYYSSYSPISINYRT
B3: Aurora A kinase (AurA), residues 122-403, dephosphorylated (domain or fragment)
chain: ESKKRQWALEDFEIGRPLGKGKFGNVYLAREKQSKFILALKVLFKAQLEKAGVEHQLRREVEIQSHLRHPNILRLYGYFHDATRVYLILEYAPLGTVYRELQKLSKFDEQRTATYITELANALSYCHSKRVIHRDIKPENLLLGSAGELKIADFGWSVHAPSSRRTTLCGTLDYLPPEMIEGRMHDEKVDLWSLGVLCYEFLVGKPPFEANTYQETYKRISRVEFTFPDFVTEGARDLISRLLKHNPSQRPMLREVLEHPWITANSSKPSNCQNKESASKQS

Key:
[1] = target: B3; assay: ITC
[2] = target: B3; assay: ITC; danusertib
[3] = target: B3; assay: ITC; 50 µM danusertib
[4] = target: B3; assay: ITC; 150 µM danusertib
Mb3 [5] = assay: ITC
Mb3 [6] = assay: ITC; danusertib

Row | Binder | Kd [1] [nM] | Kd [2] [nM] | Kd [3] [µM] | Kd [4] [µM] | Kd (Mb3 [5]) [nM] | Kd (Mb3 [6]) [nM]
1 | B1 | 1500 | 889 | – | – | – | –
2 | B2 | 952 | – | 18 | 17.7 | – | –
3 | B3 | – | – | – | – | 180 | 69
